Test results as given in the DeepSol protein solubility set.

assay: soluble on expression in E. coli; label from the status in PepcDB or PDB records

| Sequence | soluble on expression in E. coli |
| --- | --- |
| MSLNKTKDIAASPLCFVSPYPQLAKAAEALVAQLDYAVTIHQTTLNRILDELPLLESRGHQVLISRGGCAEILKKHSKLPVVEIKMSGYDILDALIPFKGQKGTVGIVGFSSVIKGCARVAEQLNINYKIFTLQGNDKETISCLKRQLASTPLDCIVGDTVCQDYFSPLGSQFRLLDSSPASITEALEEARSLYLAFRSQLLERHHLQLILDQFDKAVITLDDTGALLHYNKYASQLFKINASGEIYDASFLKQVLHQERHTLREGKTVSAKVVDTPQGAMVVNLYPVFAARQLSRVVLTMQTVSSLQGAEHHVRRQELSRRGLSAREGHHHHHH | soluble |
| MNEKTINEQYAYIRTLLEEKRLKEALMQLESLLWQCPDWDLRTRLEQLQTSYKYMLEYMRQGANDPERWNVYRKLIADTWEIADRSRLLMLDNASSRYYHEVRRTPRPESLSAYTLKKLLHMLESFNDDLAVSGLLSDEKMDEVLKRHEETLKYMFLQTWTNSAWTPEEEEDAQSMLTSELLPVNDLCLFISAVTLSLMECFDLRKIMWLLDAYRHPDVNAGQRALVGVIFIFHIYKNRLSLYNDLVKRVDLMDEISPFKEDVARIYHQMLLCQETEKIDKKMREEIIPEMLKNVSSMRNMRFGFEENEDENDDKNPDWADAFEQSGLGDKLREMNELQLEGADVYMSTFAALKSYPFFREVQNWFYPFSKQQSDVIKQLKQEGNEKNTLLDLILQSGFFSNSDKYSLFFTIRQLPKAQQDMMLSQLGEQQVAELTEKSSAETMKKFNERPGTVSNQYLHDLYRFFKLSVRRHEFRDIFKEKLDLHHIPALSNVLYSEDILFPIADFYLKKERWNEAIEVYEEMETIGALQERGAEYYQKLGYALQKSKKYAEAIGAYLKADTLKPDNIWNNRHLAICYRLNRNYQAALSYYKKVEEATPEDTNVIFHIGSCLAELGQYEEAANYFFKLDFIESNCIKAWRGIGWCSFISRKYEQAMKYYEKIIEQKPLAIDYMNAGHVAWTMGDIQKAAALYGKSITANGNRERFLEMFRKDEEALLKQGIQEEDIPLMLDLL | not soluble |
| GSHHPFTAQIVAVTASGYDSEKGHVPANIADGDVKTRWAASGESWVQLELDKEQSIENILIVPFKPTERKLKFSIFYSNDGKNWQPLAEGLETSSADKNGEKLTFTPVTAKYIKLDTFGTDVNNWSAINEIAINSAAALPSRAIK | soluble |
| MGSDKIHHHHHHMFVTELRFECFADTSIEAAEKAINNFLEALRANGQVLGREFAVAFNDGEFRVRLLIPERSSLANRYNSPWVKVALNGLTEAKILAPREKFIGQDINSEASNTHQPSWQLLYTSYVHMCSPLRNGDNLLPIPLYQIPATFNGDHKRMIKWQSEWQACDELQMAAATKAEFAALDEISNTDSDLFRRGWDLRGRIEYLTKIPTYYYLYRVGGESLNAELSRPCPKCGSLEWKLAEPLLDMFQFRCEPCRIVSNLSWDHQ | not soluble |
| QLGKDHAIVERNEKIDDAFKSDPASYQSVYDAQGRIKDGQEWMRVSLKGRFDANNEVLLRMRPVEGTPAYQSLVPFTLESGESLLINRGFVPGDAANVPELAAVPTETVTIVAHARANEGMPASAPMSAHGYQQVYGINTTQISEITHTTLGTDFAQLSQDQPGVLNAMPIPQLDRGNHLSYGLQ | not soluble |
| MSLGQGSILTKANTINNMEYVTEVFGAIPTEEQVSYQKEELTAFIHFGVNTFTGREWGDGTENPEIFNPTNLDADQWVKTLAEAGFGRVILTAKHHDGFCLWDSAYTKHDVASSPWKNGKGDVVKEVLEACAKYNIKFGVYLSPWDQNSEHYGDGNGGDYNEFYMNQLRELLTNYGPIAEVWMDGAKGSNVKQEYNFEEWFALIKKLQPECLIFSPQGPDIRWIGNEKGYAGEPCWSTIDIEKMKERENPTYLNNGEEGGPNWIVGESDVSIRPGWFYHESQDNEVKSLEKMMDIYFKSIGRNSVLLLNVPPNKEGKLHENDVNRLKKFGETIKELFNDDLALNKEVIVDGFANNDETYGANKIVDGDYDTYWAPDNSSKTGTIEIDLGGSKEFDVISLQEYIPLGQRVSSFNVEVLQGENWNKVYEGKTIGYKRLVRIAPTKGEKIRINITGSLEVPLINNVGVYKQPISIEEGHHHHHH | soluble |
| GPGSMALGSGIGLVPMWSSCPSVNPPTFPKGGIEILRQSLEAQEEVERTFREREAGHIECLNFKKSLRHLLRKQNERREELQLVEQRASERTQALLDELLIVVRERLKAMSPEGYQSITFDNGDMYEGNWKSCRMHGTGVMRRVADNDIYEGEWFFGVRNGNGMCCSPNFGTLYSGKWLAGKWHGRGELAEPEGLYIGDFVDGQIRGYGEYLYREGYAYKGDWVNGVYEGSGTFFYTNGARYEGQWRNGYEHGRGTMTYYNGDVYTGDWCNGRKHGTGTYTSKLLQYEGGWSSGAVHGIGKCTYADGSMYKGSWCRGLYDGDGEFVSQDKKCSYKGEFRGGKRCGRGVYQCGEVEYSGDWLDDRRHGVGEIKTRDGRVFRGTWSHDEPHCEVVPGCNLEGTSLSYCGGRGAPIAPEEPDPVLNMRLGLPDEVIDCMADAPT | not soluble |
| EDFVVSGALNLSLIRERTGFQAKATEDYQTLAGLVMSLLDRLPSTGDSLSWQGWNLQVVGVEERRVTRVLLQKQP | not soluble |
| MGSDKIHHHHHHMSRHQNIPALSDVSSTNFSNIRLIATDMDGTLTRRGKFTTPLLQALEDLAAVDIKVLIVTGRSAGWVSGLSSLMPVAGAIAENGGLYFPPGNHKPVVLTPVSDLAKHRQHLATTFENLQTKFPQIQESADNRFRVTDWTFDVADLNQDELQTLDSLCQQMGWGFTYSNVQCHIKPQGQDKAVGLLQVLREYLPQYSPEQIVTVGDSPNDESLFERRYFPVSVGVANVLEYMNQLKYHPAYITNAAEGEGFCELSSYILKSLHIPS | not soluble |
| MIIYFIGTGGSEGIPVHLCDCNTCNEARKFRFAQRRPSTLAVIGENGEVILFDVGTDIREFLNVPLDAIFLTHWHHDHIYGLYKLRWIARETNLYAPEGHADALILQDPKNLRPKIIKAGEKIRIGDIKVTSVKLNHQIETLGYIIEEDGKRVAILYDTKGLPPETREYLEDISPLRVAIVDATYPPGFVDPYHNNVNEAVEMSIDIAERIVLSHISHKNLPFLKLVNYTRKMWGGKVLVAYDGMVFYV | soluble |
| MSWYTSCPKMLLGATAVAVPLGATVFRRESEKSENLLKIKKAKELVETTMAIQGIPGLSIAVSLDGKMVWKSGFGYANLESFAKCTGDSVMRIASISKPITATLAAQCVENGTLDLDEDIRKYLPEFPAKKFKNEDVKITMRQLLSHSAGIRHYATEKKKSETHEDPSNNNTETPEFLSNKPYNSSLDALAIFKNDDLVEKPGSKFSYTTYGLTLAGAVLEKCSGKTYRQLANQLFSDLGMRNTQLDTKEKIVPGRASYYQRNSKNILENCPEVDCSNKFAGGGIISNTTDLLIIANAILHSILSDSKNCLLQRETIRKFLEKQVPVDSKTSTGLGWFLVDGKDLKSIDGNISNSSFFYHTGAAVGASSVLLVNTSSGVCVAILCNLQNTTVLKLGRDIGDLFHGEI | soluble |
| SSGLSFSEMEGCRNLLGLLDNDEIMALCDTVTNRLVQPQDRQDAVHAILAYSQSAEELLRRRKVHREVIFKYLATQGIVIPPATEKHNLIQHAKDYWQKQPQLKLKETPEPVTKTEDIHLFQQQVKEDKKAEKVDFRRLGEEFCHWFFGLLNSQNPFLGPPQDEWGPQHFWHDVKLRFYYNTSEQNVMDYHGAEIVSLRLLSLVKEEFLFLSPNLDSHGLKCASSPHGLVMVGVAGTVHRGNTCLGIFEQIFGLIRCPFVENTWKIKFINLKIMGESSLAPGTLPKPSVKFEQSDLEAFYNVITVCGTNEVRHNVKQASDSGTGDQV | soluble |
| PHSPLAEGRREVAKVLTMASEALTQVSTAMRTGDVDGIREALRKARGSQAAINAMIAAAKSGQEEVAVSPFLWSSKARVRSFVRILHPVDNAMRNTRVLARRAQVLIEDGDEVSEAQIQLIDDLVSVTSAVAAIYDRRGAASEAAEIPELVRTLQTMAARAGLSVAEGKVLSAQVVLAQTRSIIVDLLQVCGMSRASAVASLALTSESPAYPSEIRDDPNH | soluble |
| MGSDKIHHHHHHMREQLDQVGSGGVTGATGLLGNNLVRELVARGYTVKGLVRSKAKGEQQFNNLPGVELVVGDMAEVDAFAASLQGCDTVFHTASFFRDNYKGGSHWKELEQINVSGTRRLLEQAYGAGIRRFIHTSSIAVLNGAPGTSIEENCLRADADADDYYRSKILADRVVLSFLESHPQMHACMVLPGWMWGPGDVGPTSSGQLVNDVVQGKLPGLIPGSFSIVDARDVALAHIAAARHGRRGERYLAAGRHMTMRELMPVLGRMAGVKTPARQIPLPFLYTLAAVQEIYARLTGRPILLSMATLRLLVREQDRTRFDHRKSEQELGLSFRALELTIADTVAWYRDHGWFEKGSRL | not soluble |
